Results: article PMC7925532

Target: EGFR Kinase Domain Duplication (EGFR-KDD), eGFP or mCherry fusion (human) (UniProt P00533)
Assay: PIE-FCCS (pulsed interleaved excitation fluorescence cross-correlation spectroscopy); live COS-7 cells co-expressing eGFP and mCherry fusions (1:1 plasmids), peripheral membrane, 37 °C, Opti-MEM; stimulated with 2 μg/mL recombinant human EGF; median fraction correlated (ƒc)

median cross-correlation value (ƒc): 0.17
Substance: EGFR Kinase Domain Duplication (EGFR-KDD), eGFP or mCherry fusion (from UniProt P00533 25-1038; P00533 688-1210) (receptor)
